The target in this assay is FZD7 class proteins. In words: ELISA of biotinylated Wnt binding to FZD CRD-Fc with or without peptide. For orientation: An ELISA detects its analyte on a solid surface through an enzyme-linked reagent.

This is an account of results in patent US20190359653A1, “SELECTIVE PEPTIDE INHIBITORS OF FRIZZLED” (Genentech, Inc., priority 2016, published 2019).

Consider “Biotinylated Wnt3a (from UniProt P27467 19-352) (ligand)”, for which the fold enhancement of binding by Fz7-21 or dFz7-21 lay in the range of 1.5 to 2 fold.
